“And” between values parts separate entries of the source, which are not always exact repeats. Identical values can stand only once.
Tests used:
[1] = molecular target: T1, tau phospho-peptide of the direct ELISA of Example 11; experiment: direct ELISA, peptide coated
T1 construct: also called pT217 peptide; pT212/pT217 peptide
Procedure, shortened: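 Tau phospho-peptide coated directly on plates at 10 ng/mL overnight, then incubated with antibodies. Bound Fab detected with HRPO-labelled anti-Fab antibody (1:10000) and TMB substrate. Binding curves generated from the read-out.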

[2] = molecular target: T2, Peptide-1 (human, phosphothreonine 212, phosphoserine 214, phosphothreonine 217 (tau 2N4R numbering); short chain biotin (SCBiot) and dPEG4 at the N-terminus; amide at the C-terminus); experiment: SPR ProteOn, peptide captured, Fab as analyte; range of n=2
T2 construct: also called tau peptide phosphorylated at T212/S214/T217
T2 sequence (peptide, as listed by the source): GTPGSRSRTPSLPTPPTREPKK
Description: (§1) The binding affinity of PT3 Fab towards each of the fourteen tau phosphopeptides shown in Table 6 was assessed by surface plasmon resonance (SPR) using a Bio-Rad ProteOn XPR36. Peptides were synthesized by standard chemical methods (New England Peptide) with short-chain biotin and a PEG4 moiety at the N-terminus. Biotinylated peptide was captured on a neutravidin-coated NLC biosensor chip and PT3 Fab was flowed over the surface to measure kinetic parameters.
(§2) All experiments were performed at 25° C. using phosphate buffered saline, pH 7.4, 0.005% Tween 20 (PBST) as both running buffer and sample dilution buffer. Prior to running samples, the NLC chip was conditioned by running PBST over the chip surface for 1 h. Approximately 5-10 RU of peptide was captured on the chip surface by diluting peptide to 10 ng/mL in PBST and injecting over the flow channels at 30 μL/min for 100 s. Serial dilutions of PT3 Fab (1.1-90 nM) were analyzed and, with the exception of Peptide-8, each concentration was measured in duplicate. After capture of peptides, the antibody titration was injected at 60 μL/min for 3 minutes (association phase), followed by 300 s of buffer only (dissociation phase).
(§3) The data were double referenced by subtraction of the interspot response and the curves generated by the buffer-only injection. The chip surface was regenerated using a single injection of 0.85% phosphoric acid at 30 μL/min for 100 s contact time, followed by four injections of running buffer before the next antibody titration injection. The data processing and kinetic analysis were done using the instrument software. The data were analyzed using a simple Langmuir 1:1 binding model.

[3] = molecular target: T3, Peptide-2 (human, phosphothreonine 212, phosphothreonine 217 (tau 2N4R numbering); short chain biotin (SCBiot) and dPEG4 at the N-terminus; amide at the C-terminus); experiment: as above
T3 construct: also called pT212/pT217-tau peptide (Peptide-2)
Description: as §1, §2, §3

[4] = molecular target: T4, Peptide-5 (human, phosphoserine 210, phosphoserine 214, phosphothreonine 217 (tau 2N4R numbering); SCBiot and dPEG4 at the N-terminus; amide at the C-terminus); experiment: as above
Description: as §1, §2, §3

[5] = molecular target: T1, tau phospho-peptide of the direct ELISA …; experiment: direct ELISA on plate-coated tau phospho-peptide, Fabs
Description: Binding to tau phospho-peptide was analysed by ELISA where peptide (10 ng/mL) was directly coated to the plate overnight. […] After incubation with antibodies, plates were washed and 50 μL per well of HRPO labelled anti-Fab antibody (Jackson Immunoresearch laboratories) (diluted 1:10000 in blocking buffer). After another washing step detection was performed with “One step” TMB (Thermo Scientific) according to the manufacturers' instructions. Plates were analysed in EnVision® 2102 Multilabel Reader (Perkin Elmer, Waltham, Mass., USA). Binding curves were generated using GraphPad Prism7.0 software.

[6] = molecular target: Peptide-4 (human, phosphoserine 210, phosphothreonine 217 (tau 2N4R numbering); SCBiot and dPEG4 at the N-terminus; amide at the C-terminus); experiment: SPR ProteOn, peptide captured, Fab as analyte; Peptide-4, phosphorylated at 210/217
Description: as §1, §2
(§4) The data were double referenced by subtraction of the interspot response and the curves generated by the buffer-only injection. […] The data were analyzed using a simple Langmuir 1:1 binding model.

[7] = molecular target: Peptide-6 (human, phosphothreonine 217 (tau 2N4R numbering); SCBiot and dPEG4 at the N-terminus; amide at the C-terminus); experiment: SPR ProteOn, peptide captured, Fab as analyte; Peptide-6, phosphorylated at 217 only
Description: as §1, §2, §4

[8] = molecular target: T2, Peptide-1; experiment: SPR ProteOn, peptide captured, Fab as analyte; Peptide-1, phosphorylated at 212/214/217
Description: as §1, §2, §4

[9] = molecular target: T4, Peptide-5; experiment: SPR ProteOn, peptide captured, Fab as analyte; Peptide-5, phosphorylated at 210/214/217
Description: as §1, §2, §4

[10] = molecular target: T2, Peptide-1; experiment: SPR ProteOn, peptide captured, Fab as analyte; range of n=2; Peptide-1 (pT212/pS214/pT217); upper end of n=2 range
Description: as §1, §2, §4

[11] = molecular target: T3, Peptide-2; experiment: SPR ProteOn, peptide captured, Fab as analyte; Peptide-2 (pT212/pT217); separate run of Table 12 (HFA Fab comparison), n=2
Description: A subset of HFA-PT3 monoclonal antibody variants, selected based on biophysical characterization and ELISA binding to PHF, were analyzed by Surface Plasmon Resonance (SPR) with a ProteOn XPR36 for binding to the following phosphopeptides: pT212/pT217-tau peptide (Peptide-2, SEQ ID NO: 48) and pT212-tau peptide (Peptide-8, SEQ ID NO: 54). All experiments were performed at 25° C. using PBST, pH 7.4, (Bio-Rad Cat#176-2720) as both running buffer and sample dilution buffer.
Fab/peptide binding. Biotinylated peptide was captured on a neutravidin-coated NLC biosensor chip pre-conditioned with PBST, and Fab was flowed over the surface to measure kinetic parameters. Approximately 5-10 RU of peptide was captured on the chip surface by diluting peptide to 10 ng/mL in PBST and injecting over the flow channels at 30 μL/min for 100 s. Serial dilutions of PT3 Fab (1.1 nM to 90 nM) were injected at 60 μL/min for 3 minutes (association phase), followed by 300 s of buffer only (dissociation phase).
Data were double referenced by subtraction of the interspot response, and the curves generated by the buffer only injection. The chip surface was regenerated with 0.85% phosphoric acid, followed by PBST injection before the next antibody titration injection. Data processing and analysis were performed using instrument software. The data were fit using a simple Langmuir 1:1 binding model.

EC50 [1]: 0.11 nM
koff [2]: 0.000236 s⁻¹ and 0.000324 s⁻¹
kon [2]: 870000 M⁻¹ s⁻¹ and 1.67e+06 M⁻¹ s⁻¹
Kd [3]: 0.09 to 0.45 nM
koff [3]: 9.1e-05 s⁻¹
Kd [4]: 6.6 to 10.8 nM
EC50 (read off the curve) [5]: ~0.2 nM
Kd [6]: 6.6 nM
Kd [7]: 11.4 nM
Kd [8]: 0.26 nM
Kd [9]: 8.7 nM
Kd [10]: 0.14 to 0.38 nM
Kd [11]: 0.0874 nM
B1: PT3 Fab (B187) (Fab, V domains shown)
VH: EVKLVESGGDLVKPGGSLKLSCAASGFTFSSYAMSWVRQNPEKRLEWVASISKGGNTYYPNSVKGRFTISRDNARNILYLQMSSLRSEDTALYYCARGWGDYGWFAYWGQVTLVTVSA
VL: DIKMTQSPSSMYASLGERVTITCKASQDINRYLNWFQQKPGKSPKTLIYRANRLLDGVPSRFSGSGSGQDYSLTISSLDYEDMGIYYCLQYDEFPLTFGDGTKLELK
notes: Chimeric Fab: mouse variable regions, human IgG1/kappa constant region, 6xHis tag at the C-terminus of the heavy chain; also called mouse parental Fab of PT3

— US20230047413A1 (Janssen / Centocor, published 2023)
